Laboratory results reported in FireProtDB (doi:10.1016/j.ijbiomac.2020.05.059).
Values joined by “and” are separate entries in the source; they are usually repeats but may differ in a detail not shown here. Identical values can stand only once.

Conditions: Equus caballus, pH 6, 25 °C, transition: 2
[1] = GdnHCl, CD, sodium cacodylate, NaCl, reversible: yes, structure 1HRC
[2] = GdnHCl, sodium cacodylate 100 mM, NaCl 100 mM, reversible: no, structure 1HRC
[3] = Urea, CD, sodium cacodylate, NaCl, reversible: yes, structure 1HRC
[4] = Urea, sodium cacodylate 100 mM, NaCl 100 mM, reversible: no, structure 1HRC
[5] = GdnHCl, CD, sodium cacodylate, NaCl, reversible: yes

Chain of Cytochrome c L95I, P00004 (P00004 whole entry L95I): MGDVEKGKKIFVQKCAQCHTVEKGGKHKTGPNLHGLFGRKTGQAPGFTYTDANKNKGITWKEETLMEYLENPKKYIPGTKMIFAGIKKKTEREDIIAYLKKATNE
Chain of Cytochrome c L95V, P00004 (P00004 whole entry L95V): as the sequence (P00004 whole entry L95I) above, with I95V counted along it
Chain of Cytochrome c wild type, P00004 (P00004 whole entry): as the sequence (P00004 whole entry L95I) above, with I95L counted along it

Substance	ddG of mutation (higher = less stable) [1]	denaturant m value [1]	denaturant midpoint (higher = more stable) [1]	unfolding free energy [1]	denaturant midpoint (higher = more stable) [2]	ddG of mutation (higher = less stable) [3]	denaturant m value [3]	denaturant midpoint (higher = more stable) [3]	unfolding free energy [3]	denaturant m value [4]	denaturant midpoint (higher = more stable) [4]	ddG of mutation (higher = less stable) [2]	denaturant m value [2]	unfolding free energy [2]	ddG of mutation (higher = less stable) [4]	unfolding free energy [4]	denaturant m value [5]	denaturant midpoint (higher = more stable) [5]	unfolding free energy [5]	unfolding free energy (Urea, sodium cacodylate 100 mM, NaCl 100 mM, reversible: yes)
Cytochrome c L95V, P00004	1.66 kcal/mol and 1.82 kcal/mol	3.54 kcal/mol/M and 3.61 kcal/mol/M	2.07 M and 2.11 M	7.34 kcal/mol and 7.64 kcal/mol	2.1 M and 2.01 M and 2.11 M	2.36 kcal/mol	1.47 kcal/mol/M	5.46 M	8.02 kcal/mol	1.48 kcal/mol/M and 1.47 kcal/mol/M	5.46 M and 5.43 M									
Cytochrome c L95I, P00004	1.31 kcal/mol and 1.51 kcal/mol	3.59 kcal/mol/M and 3.64 kcal/mol/M	2.14 M and 2.15 M	7.69 kcal/mol and 7.95 kcal/mol	2.18 M and 2.06 M and 2.15 M	1.73 kcal/mol and 1.68 kcal/mol	1.48 kcal/mol/M and 1.47 kcal/mol/M	5.87 M and 5.89 M	8.68 kcal/mol and 8.7 kcal/mol	1.49 kcal/mol/M and 1.47 kcal/mol/M	5.9 M and 5.89 M	1.54 kcal/mol and 1.1 kcal/mol and 1.51 kcal/mol	3.65 kcal/mol/M and 3.49 kcal/mol/M and 3.64 kcal/mol/M	7.96 kcal/mol and 7.17 kcal/mol and 7.95 kcal/mol	1.68 kcal/mol and 1.83 kcal/mol	8.78 kcal/mol and 8.65 kcal/mol and 8.7 kcal/mol				
Cytochrome c wild type, P00004																	3.64 kcal/mol/M and 3.73 kcal/mol/M	2.47 M and 2.53 M	9 kcal/mol and 9.46 kcal/mol	10.5 kcal/mol and 10.3 kcal/mol and 10.4 kcal/mol
